These results are taken from USRE48805E1, “Method for cancer targeting treatment and detection of arginine using albumin-binding arginine deiminase fusion protein” (Vision Global Holdings Ltd., priority 2013, dated 2021).

A word on the Km: it is the substrate concentration at which the rate is half of its maximum.

For series [1], the system named is N=C(N)NCCC[C@H](N)C(=O)O. Briefly: Enzyme kinetics (Km), citrulline detection by DAM-TSC assay. The series is classed as biochemical, Mycoplasma arginini. The settings on record: other: substrate arginine (62.5-2000 μM), pH 7.4. The protocol:
(§1) To determine the enzyme activity for wild-type ADI and AAD fusion protein in the present invention, the diacetyl monoxime (DAM)-thiosemicarbazide (TSC) assay for citrulline detection is used. The reaction is shown below. L-Arginine argininedeiminase(ADI)orAADfusion>L-Citrulline+Ammonia
(§2) This assay is run by adding sample to a color reagent, which is made by mixing acidic ferric chloride solution with DAM-TSC solution. […] The reaction mixture is heated at 100° C. for […] to develop the color and read at 540 nm (light path=1 cm). A standard curve is constructed using various concentrations of citrulline. One unit of the ADI native enzyme is the amount of enzyme activity that converts 1 μmol of arginine to 1 μmol of citrulline per minute at 37° C. under the assay conditions. The specific activities of wild-type ADI, pegylated ADI (Ensor et al., Cancer Res. 62:5443-5450, 2002) and AAD fusion protein in the present invention are about 20, 15 and 19 U/mg (at pH 7.4, physiological pH), respectively. The specific activities for wild-type ADI and AAD fusion protein at different pH values (in a range from pH 5.5 to 9.5) are also determined, and the optimum pH is at 6.5.
(§3) The Michaelis constant Km is the substrate concentration at which the reaction rate is at half-maximum, and is an inverse measure of the substrate's affinity for the enzyme. […]

In series [2] the test system is N=C(N)NCCC[C@H](N)C(=O)O. The description is as above. The series is classed as biochemical, Bacillus cereus. The following applies: other: substrate arginine (62.5-2000 μM), pH 7.4. The protocol:
as §1, §2, §3

With “AAD fusion protein His-ABD-PolyN-ADI (FIG. 3E), SEQ ID NO: 40, ADI originated from Mycoplasma arginini (Mycoplasmopsis arginini)”, in series [1], the Km was determined as 4.1 µM.

Consider “AAD fusion protein His-ABD-PolyN-bcADI (FIG. 3F), SEQ ID NO: 41, ADI originated from Bacillus cereus (Bacillus cereus AH820)”, for which, in series [2], the Michaelis-Menten constant (Km) was determined as 132 µM.
